{"source": "paper PMC4100090", "about": "“A Simple Three-Step Method for Design and Affinity Testing of New Antisense Peptides: An Example of Erythropoietin” (International Journal of Molecular Sciences, 2014)", "key": {"[1]": {"assay": "circular dichroism spectroscopy", "assay_type": "physicochemical", "settings": "1 mg/mL peptide, phosphate buffer 0.1 M, pH = 7.4, 25 °C, 1 cm cuvette, averages of five scans; negative peak around 200 nm", "protocol": "The circular dichroism spectra were measured with Jasco J-815 CD spectrometer equipped with thermostated cell holder in a rectangular 1 cm cuvette (Jasco Inc., Easton, MD, USA). Conditions: concentration of peptides = 1 mg/mL, phosphate buffer = 0.1 M, pH = 7.4, temperature = 25 °C. Spectra are presented as averages of five scans, and corrected for buffer spectrum."}, "[2]": {"target": "T1, Erythropoietin P2 epitope peptide (Homo sapiens)", "T1 chain": "LKLYTGEACRTGDR", "assay": "tryptophan fluorescence titration"}, "[3]": {"target": "T1, Erythropoietin P2 epitope peptide", "assay": "microscale thermophoresis"}}}
{"molecule": "LKLYTGEACRTGDR", "values": [{"measurement": "secondary structure by CD spectroscopy", "setting": "[1]", "value": "random coil structure"}]}
{"molecule": "DFDIWPLRTAWPLS", "note": "[EPO-P2 antisense peptide]", "values": [{"measurement": "Kd", "setting": "[2]", "value": 850, "unit": "µM"}, {"measurement": "Kd", "setting": "[3]", "value": 816, "unit": "µM"}]}
